From publication PMC2677886 (Nucleic Acids Research, 2009)

Biological target: RECQ5–CBD fusion protein (human, UniProt O94762 1-991)
Test: pull-down

Sequence of RECQ5–CBD fusion protein (O94762 whole entry, the tested form may be a part): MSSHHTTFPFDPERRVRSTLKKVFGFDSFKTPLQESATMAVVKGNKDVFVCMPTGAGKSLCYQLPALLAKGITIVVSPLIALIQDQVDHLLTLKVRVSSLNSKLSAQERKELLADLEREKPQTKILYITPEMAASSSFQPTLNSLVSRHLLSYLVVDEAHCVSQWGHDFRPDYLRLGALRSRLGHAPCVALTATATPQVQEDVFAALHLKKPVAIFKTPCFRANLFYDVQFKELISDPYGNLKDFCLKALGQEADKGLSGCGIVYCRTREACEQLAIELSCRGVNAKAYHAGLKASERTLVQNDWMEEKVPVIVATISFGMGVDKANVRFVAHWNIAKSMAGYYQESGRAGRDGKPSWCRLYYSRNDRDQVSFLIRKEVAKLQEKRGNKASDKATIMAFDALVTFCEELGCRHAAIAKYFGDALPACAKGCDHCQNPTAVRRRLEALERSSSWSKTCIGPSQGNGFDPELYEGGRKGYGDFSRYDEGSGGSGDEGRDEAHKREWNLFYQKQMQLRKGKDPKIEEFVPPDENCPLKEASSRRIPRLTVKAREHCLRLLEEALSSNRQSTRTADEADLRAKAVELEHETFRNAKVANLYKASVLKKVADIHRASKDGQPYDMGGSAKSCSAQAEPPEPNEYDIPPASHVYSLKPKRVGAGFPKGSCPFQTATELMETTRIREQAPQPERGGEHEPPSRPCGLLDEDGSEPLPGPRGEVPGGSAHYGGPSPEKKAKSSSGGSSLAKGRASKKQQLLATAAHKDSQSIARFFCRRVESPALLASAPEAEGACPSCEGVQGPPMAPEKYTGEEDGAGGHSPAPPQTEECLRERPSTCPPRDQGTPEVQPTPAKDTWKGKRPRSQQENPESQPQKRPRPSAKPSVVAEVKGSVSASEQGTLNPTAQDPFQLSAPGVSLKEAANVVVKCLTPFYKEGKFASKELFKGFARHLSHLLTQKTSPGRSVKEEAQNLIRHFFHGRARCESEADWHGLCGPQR

Row | binding result | Binder
1 | binds | (His)6-NBS1, individually purified (natural protein, human, UniProt O60934 1-754, looked up) MWKLLPAAGPAGGEPYRLLTGVEYVVGRKNCAILIENDQSISRNHAVLTANFSVTNLSQTDEIPVLTLKDNSKYGTFVNEEKMQNGFSRTLKSGDGITFGVFGSKFRIEYEPLVACSSCLDVSGKTALNQAILQLGGFTVNNWTEECTHLVMVSVKVTIKTICALICGRPIVKPEYFTEFLKAVESKKQPPQIESFYPPLDEPSIGSKNVDLSGRQERKQIFKGKTFIFLNAKQHKKLSSAVVFGGGEARLITEENEEEHNFFLAPGTCVVDTGITNSQTLIPDCQKKWIQSIMDMLQRQGLRPIPEAEIGLAVIFMTTKNYCDPQGHPSTGLKTTTPGPSLSQGVSVDEKLMPSAPVNTTTYVADTESEQADTWDLSERPKEIKVSKMEQKFRMLSQDAPTVKESCKTSSNNNSMVSNTLAKMRIPNYQLSPTKLPSINKSKDRASQQQQTNSIRNYFQPSTKKRERDEENQEMSSCKSARIETSCSLLEQTQPATPSLWKNKEQHLSENEPVDTNSDNNLFTDTDLKSIVKNSASKSHAAEKLRSNKKREMDDVAIEDEVLEQLFKDTKPELEIDVKVQKQEEDVNVRKRPRMDIETNDTFSDEAVPESSKISQENEIGKKRELKEDSLWSAKEISNNDKLQDDSEMLPKKLLLTEFRSLVIKNSTSRNPSGINDDYGQLKNFKKFKKVTYPGAGKLPHIIGGSDLIAHHARKNTELEEWLRQEMEVQNQHAKEESLADDLFRYNPYLKRRR
2 | binds | (His)6-MRE11, individually purified (natural protein, human, UniProt P49959 1-708, looked up) MSTADALDDENTFKILVATDIHLGFMEKDAVRGNDTFVTLDEILRLAQENEVDFILLGGDLFHENKPSRKTLHTCLELLRKYCMGDRPVQFEILSDQSVNFGFSKFPWVNYQDGNLNISIPVFSIHGNHDDPTGADALCALDILSCAGFVNHFGRSMSVEKIDISPVLLQKGSTKIALYGLGSIPDERLYRMFVNKKVTMLRPKEDENSWFNLFVIHQNRSKHGSTNFIPEQFLDDFIDLVIWGHEHECKIAPTKNEQQLFYISQPGSSVVTSLSPGEAVKKHVGLLRIKGRKMNMHKIPLHTVRQFFMEDIVLANHPDIFNPDNPKVTQAIQSFCLEKIEEMLENAERERLGNSHQPEKPLVRLRVDYSGGFEPFSVLRFSQKFVDRVANPKDIIHFFRHREQKEKTGEEINFGKLITKPSEGTTLRVEDLVKQYFQTAEKNVQLSLLTERGMGEAVQEFVDKEEKDAIEELVKYQLEKTQRFLKERHIDALEDKIDEEVRRFRETRQKNTNEEDDEVREAMTRARALRSQSEESASAFSADDLMSIDLAEQMANDSDDSISAATNKGRGRGRGRRGGRGQNSASRGGSQRGRADTGLETSTRSRNSKTAVSASRNMSIIDAFKSTRQQPSRNVTTKNYSEVIEVDESDVEEDIFPTTSKTDQRWSSTSSSKIMSQSQVSKGVDFESSEDDDDDPFMNTSSLRRNRR
